Values quoted from earlier work in publication PMC9971567.

Biological target: Intimin C terminus (Escherichia coli) (UniProt P19809)
Chain of UniProt P19809 (P19809 660-939): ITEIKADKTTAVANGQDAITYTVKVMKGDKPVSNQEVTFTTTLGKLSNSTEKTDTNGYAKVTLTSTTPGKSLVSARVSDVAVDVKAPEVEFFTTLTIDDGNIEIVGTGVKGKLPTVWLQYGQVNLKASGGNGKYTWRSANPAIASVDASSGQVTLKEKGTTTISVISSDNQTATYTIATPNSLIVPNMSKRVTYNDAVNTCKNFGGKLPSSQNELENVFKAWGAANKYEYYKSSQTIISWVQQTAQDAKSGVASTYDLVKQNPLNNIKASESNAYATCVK

## Tir central loop (from UniProt B7UM99)
  Kd: 10 nM
